Measurements from patent US20250026849A1 (ARCELLX, published 2025).

T1: CD123 (Homo sapiens (Human), UniProt P26951 19-305, limits assumed)
T1 construct: also called CD123-Signal
T1 sequence: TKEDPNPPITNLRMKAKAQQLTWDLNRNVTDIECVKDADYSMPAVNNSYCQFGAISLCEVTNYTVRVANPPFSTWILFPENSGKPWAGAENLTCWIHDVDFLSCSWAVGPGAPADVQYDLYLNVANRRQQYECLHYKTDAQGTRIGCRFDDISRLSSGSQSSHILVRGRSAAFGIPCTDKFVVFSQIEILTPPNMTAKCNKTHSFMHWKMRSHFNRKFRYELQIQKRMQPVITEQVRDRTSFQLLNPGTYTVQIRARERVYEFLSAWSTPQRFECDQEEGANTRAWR


Molecular target: T1, CD123
Experiment: ELISA, format not described
Set-up: unit not given here

| Binder | ELISA_avg |
| --- | --- |
| D domain SEQ ID NO: 674 (designed binder) MGSWWEFYDRLTAIEARLWALGGSEAELADFEEGIADFEYDLQDYKGKGNPEVEALFWEAWAIQSELTAYRHN | 3.2 |
| D domain SEQ ID NO: 695 (designed binder) MGSWFEFLYRLDAIEDRLWALGGSEAELAEFEQEIAKFESELQSYKGKGNPEVEALEWEAHAIDMELEAYRHN | 6.6 |
| D domain SEQ ID NO: 745 (designed binder) MGSWIEFEDRLYAIEDRLWALGGSEAELAAFEKEIAAFESELQAYKGKGNPEVEFLRYEAAEIRYWLQAYRHN | 4 |
| D domain SEQ ID NO: 675 (designed binder) MGSWYEFEDRLAAIEARLWALGGSEAELADFEEEIAYFEHGLQWYKGKGNPEVEALESEAMAIIDELHAYRHN | 3.8 |
| D domain SEQ ID NO: 690 (designed binder) MGSWDEFHQRLAAIGDRLWALGGSEAELAYFEWEIATFEWDLQVYKGKGNPEVEALYFEATAIDEELMAYRHN | 3.7 |
| D domain SEQ ID NO: 677 (designed binder) MGSWEEFFFRLEAIDDRLYALGGSEAELALFEEVIAYFEQDLQWYKGKGNPEVEALYVEAYAIQEELYAYRHN | 3.2 |
| D domain SEQ ID NO: 686 (designed binder) MGSWEEFYYRLHAIDNRLWALGGSEAELAYFEWHIADFELELQDYKGKGNPEVEALSEEATAIFEELWAYRHN | 3 |
| D domain SEQ ID NO: 678 (designed binder) MGSWFEFEERLNAISWRLHALGGSEAELAYFEEDIAWFEDDLQFYKGKGNPEVEALENEAYAIWEELDAYRHN | 13 |
| D domain SEQ ID NO: 689 (designed binder) MGSWEEFEQRLWAIDDRLWALGGSEAELAFFEYEIAEFEMDLQWYKGKGNPEVEALFYEAHAINEELWAYRHN | 5.7 |
| D domain SEQ ID NO: 682 (designed binder) MGSWWEFTDRLDAIFDRLWALGGSEAELAAFEESIAIFEQDLQYYKGKGNPEVEALEYEANAIQYELEAYRHN | 7.5 |
| D domain SEQ ID NO: 694 (designed binder) MGSWYEFFDRLDAIYDRLYALGGSEAELASFEAQIAEFEVELQSYKGKGNPEVEALEWEAWAIDEELYAYRHN | 4.7 |
| D domain SEQ ID NO: 684 (designed binder) MGSWVEFFWRLDAIEDRLWALGGSEAELANFEFEIADFEAWLQKYKGKGNPEVEALHSEADAIQLELRAYRHN | 4 |
| D domain SEQ ID NO: 685 (designed binder) MGSWVEFYNRLDAIENRLWALGGSEAELAFFEELIAQFEFALQDYKGKGNPEVEALEDEADAIWEELMAYRHN | 6.9 |
| D domain SEQ ID NO: 688 (designed binder) MGSWEEFDERLWAISDRLWALGGSEAELAYFEGEIAYFEQNLQTYKGKGNPEVEALQTEALAIDTELWAYRHN | 6.5 |
| D domain SEQ ID NO: 679 (designed binder) MGSWFEFEERLEAIIYRLWALGGSEAELAMFEESIAWFESDLQQYKGKGNPEVEALEYEAMAISKELKAYRHN | 3.7 |
| D domain SEQ ID NO: 687 (designed binder) MGSWREFHDRLFAIDGRLWALGGSEAELANFEWDIADFEFELQDYKGKGNPEVEALSWEADAIMQELGAYRHN | 5.6 |
| D domain SEQ ID NO: 693 (designed binder) MGSWHEFDDRLDAIMSRLDALGGSEAELATFEAEIATFEFVLQLYKGKGNPEVEALLAEAYAIDWELEAYRHN | 7.7 |
| D domain SEQ ID NO: 681 (designed binder) MGSWDEFEERLQAIEYRLWALGGSEAELAWFEEVIAQFEYDLQKYKGKGNPEVEALSTEAQAIQDELWAYRHN | 3.8 |
| D domain SEQ ID NO: 692 (designed binder) MGSWDEFDTRLDAIFSRLYALGGSEAELAMFEGEIAEFEGSLQHYKGKGNPEVEALDFEAHAIDEELWAYRHN | 4 |
| D domain SEQ ID NO: 683 (designed binder) MGSWWEFTDRLEAIEDRLWALGGSEAELAHFEDSIAQFEQELQWYKGKGNPEVEALADEADAIESELHAYRHN | 16.6 |
| D domain SEQ ID NO: 676 (designed binder) MGSWWEFSWRLEAIETRLDALGGSEAELAFFEMDIAWFEQDLQLYKGKGNPEVEALEEEAYAIYEELEAYRHN | 3.3 |
| D domain SEQ ID NO: 680 (designed binder) MGSWAEFDDRLEAIEYRLHALGGSEAELAWFEEGIAGFEHALQSYKGKGNPEVEALETEAGAINEELWAYRHN | 5.8 |
| D domain SEQ ID NO: 673 (designed binder) MGSWAEFEDRLAAIERRLEALGGSEAELADFESSIAWFEPDLQYYKGKGNPEVEALMYEAEAIFSELYAYRHN | 4.2 |
| D domain SEQ ID NO: 691 (designed binder) MGSWVEFEYRLDAISDRLWALGGSEAELAFFENEIASFESDLQFYKGKGNPEVEALMFEAEAIDDELHAYRHN | 6.5 |

Further lines, results first:

| ELISA_avg | Binder |
| --- | --- |
| 3.9 | D domain SEQ ID NO: 705 (designed binder) MGSWDEFWDRLDAIEDRLFALGGSEAELADFERVIAWFENDLQEYKGKGNPEVEALDNEADAIRIELHAYRHN |
| 4.2 | D domain SEQ ID NO: 711 (designed binder) MGSWIEFEVRLDAIWDRLFALGGSEAELAAFEKEIAAFESELQAYKGKGNPEVEYLRDEAADIRQSLQAYRHN |
| 3.3 | D domain SEQ ID NO: 709 (designed binder) MGSWYEFDDRLEAIWDRLGALGGSEAELAAFEKEIAAFESELQAYKGKGNPEVEWLRETAADIRAELQAYRHN |
| 9.2 | D domain SEQ ID NO: 712 (designed binder) MGSWTEFDRRLDAIWDRLFALGGSEAELAAFEKEIAAFESELQAYKGKGNPEVEWLREEAADIRDYLQAYRHN |
| 3.1 | D domain SEQ ID NO: 713 (designed binder) MGSWTEFDMRLDAIWDRLFALGGSEAELAAFEKEIAAFESELQAYKGKGNPEVEELREEAATIRGVLQAYRHN |
| 4.2 | D domain SEQ ID NO: 715 (designed binder) MGSWVEFRDRLDAIETRLWALGGSEAELAAFEKEIAAFESELQAYKGKGNPEVEWLRYEAAEIRMVLQAYRHN |
| 4.3 | D domain SEQ ID NO: 714 (designed binder) MGSWEEFHDRLMAIETRLWALGGSEAELAAFEKEIAAFESELQAYKGKGNPEVEWLRYEAADIRDYLQAYRHN |
| 3.3 | D domain SEQ ID NO: 708 (designed binder) MGSWFEFEWRLDAIENRLNALGGSEAELAWFEYHIAAFEDSLQHYKGKGNPEVEALEWEAHAIQSELQAYRHN |
| 5.1 | D domain SEQ ID NO: 697 (designed binder) MGSWYEFESRLDAIVDRLWALGGSEAELAEFEYEIAKFEWELQDYKGKGNPEVEALNWEAGAIEFELYAYRHN |
| 3.3 | D domain SEQ ID NO: 707 (designed binder) MGSWEEFTIRLGAIYWRLFALGGSEAELANFEWFIAEFEYELQPYKGKGNPEVEALVIEANAIDGELQAYRHN |
| 3.3 | D domain SEQ ID NO: 701 (designed binder) MGSWYEFADRLDAIMDRLVALGGSEAELAYFEWEIAAFEEFLQMYKGKGNPEVEALDEEAEAIKDELMAYRHN |
| 3 | D domain SEQ ID NO: 702 (designed binder) MGSWNEFWERLDAIEWRLFALGGSEAELAFFELDIAWFEEELQWYKGKGNPEVEALIFEAHAITLELDAYRHN |
| 3.9 | D domain SEQ ID NO: 696 (designed binder) MGSWLEFEDRLVAIDHRLFALGGSEAELAEFEEEIALFESYLQDYKGKGNPEVEALNWEADAIHAELYAYRHN |
| 8.9 | D domain SEQ ID NO: 703 (designed binder) MGSWYEFDARLDAIEERLYALGGSEAELAAFEFEIAGFEEALQWYKGKGNPEVEALLKEAEAITDELYAYRHN |
| 4.6 | D domain SEQ ID NO: 699 (designed binder) MGSWGEFMDRLEAIDYRLWALGGSEAELAWFESDIAEFEQELQMYKGKGNPEVEALWDEAMAIRDELFAYRHN |
| 4 | D domain SEQ ID NO: 700 (designed binder) MGSWEEFDDRLDAIEHRLWALGGSEAELADFEGSIAAFESWLQVYKGKGNPEVEALEAEAEAIADELWAYRHN |
| 3.2 | D domain SEQ ID NO: 704 (designed binder) MGSWDEFSERLDAIWGRLEALGGSEAELATFEFHIAEFEHELQYYKGKGNPEVEALQGEAAAIINELYAYRHN |
| 4.3 | D domain SEQ ID NO: 698 (designed binder) MGSWYEFEDRLDAILYRLLALGGSEAELAWFERDIAFFESELQWYKGKGNPEVEALEWEAMAIDDELFAYRHN |
| 5.6 | D domain SEQ ID NO: 706 (designed binder) MGSWDEFDDRLEAIVDRLFALGGSEAELAMFEFEIAQFEHQLQYYKGKGNPEVEALRDEADAIWIELDAYRHN |
